Experimental data published in the Immune Epitope Database (IEDB).

Tests used:
HLA-A*02:17 = assay: IEDB peptide-MHC binding, purified MHC/competitive/radioactivity; filed as Kd, often an IC50 or EC50 that approximates it; ≥ and ≤ were set here for values at or beyond the usual limits of such assays
HLA-A*02:01 [1] = assay: as above
HLA-A*02:06 = assay: as above
HLA-A*11:01 [2] = assay: IEDB peptide-MHC binding, purified MHC/competitive/fluorescence; ≥ and ≤ were set here for values at or beyond the usual limits of such assays
HLA-A*02:01 [3] = assay: as above; settings: source organism: Zaire ebolavirus
HLA-B*40:01 = assay: IEDB peptide-MHC binding, purified MHC/direct/fluorescence; filed as Kd, often an IC50 or EC50 that approximates it; ≥ and ≤ were set here for values at or beyond the usual limits of such assays
HLA-A*03:01 [4] = assay: as above
HLA-A*01:01 = assay: as above
HLA-A*31:01 = assay: as above
HLA-B*08:01 = assay: as above
HLA-B*58:01 = assay: as above
HLA-A*69:01 [5] = assay: as above
HLA-B*18:01 [6] = assay: as above
HLA-B*46:01 [7] = assay: as above
HLA-A*11:01 [8] = assay: as above
HLA-A*02:01 [9] = assay: as above
HLA-B*27:05 = assay: as above
HLA-B*44:02 = assay: as above
HLA-B*15:01 [10] = assay: as above
HLA-A*29:02 = assay: as above
HLA-B*57:01 [11] = assay: as above
HLA-B*15:17 [12] = assay: IEDB peptide-MHC binding, purified MHC/competitive/fluorescence; filed as Kd, often an IC50 or EC50 that approximates it; ≥ and ≤ were set here for values at or beyond the usual limits of such assays
HLA-A*26:01 = assay: as above
HLA-B*27:03 = assay: as above
HLA-A*68:02 [13] = assay: IEDB peptide-MHC binding, purified MHC/competitive/radioactivity; filed as Kd, often an IC50 or EC50 that approximates it; ≥ and ≤ were set here for values at or beyond the usual limits of such assays; settings: source organism: Dengue virus 3 Martinique/1243/1999
HLA-A*02:03 = assay: as above; settings: source organism: Dengue virus 3 Martinique/1243/1999
HLA-A*03:01 [14] = assay: IEDB peptide-MHC binding, purified MHC/competitive/fluorescence; filed as Kd, often an IC50 or EC50 that approximates it; ≥ and ≤ were set here for values at or beyond the usual limits of such assays
HLA-A*69:01 [15] = assay: as above; settings: source organism: Homo sapiens
HLA-B*18:01 [16] = assay: as above
HLA-B*46:01 [17] = assay: as above
HLA-B*15:01 [18] = assay: as above
HLA-B*51:01 = assay: as above
HLA-B*39:01 = assay: as above
HLA-B*57:01 [19] = assay: as above
HLA-A*02:01 [20] = assay: as above; settings: source organism: Cryptococcus neoformans var. neoformans B-3501A
HLA-B*15:17 [21] = assay: IEDB peptide-MHC binding, purified MHC/direct/fluorescence; filed as Kd, often an IC50 or EC50 that approximates it; ≥ and ≤ were set here for values at or beyond the usual limits of such assays; settings: source organism: West Nile virus
HLA-A*68:02 [22] = assay: as above; settings: source organism: Zaire ebolavirus
HLA-B*48:01 = assay: as above; settings: source organism: Ebola virus - Gabon (1994-1997)
HLA-A*02:19 = assay: as above; settings: source organism: Zaire ebolavirus
HLA-A*02:12 = assay: as above; settings: source organism: Zaire ebolavirus
HLA-A*24:03 = assay: as above; settings: source organism: Zaire ebolavirus
[23] = source organism: Dengue virus 4 Philippines/H241/1956
[24] = source organism: Dengue virus 4 Dominica/814669/1981
[25] = source organism: Zaire ebolavirus
[26] = source organism: Reston ebolavirus - Reston
[27] = source organism: Reston ebolavirus
[28] = source organism: Dengue virus 2 Jamaica/1409/1983
[29] = source organism: Dengue virus 3 China/80-2/1980
[30] = source organism: Dengue virus 1 Singapore/S275/1990
[31] = source organism: Cryptococcus neoformans var. neoformans B-3501A
[32] = source organism: Sudan ebolavirus
[33] = source organism: Ebola virus - Gabon (1994-1997)

## YQGKTVWFV
HLA-A*02:17; [23]
  Kd: 0.201 µM
HLA-A*02:01 [1]; [23]
  Kd: 0.00987 µM
HLA-A*02:06; [23]
  Kd: 0.0123 µM

## SMGLITIAV
HLA-A*02:17; [24]
  Kd: 0.776 µM
HLA-A*02:01 [1]; [24]
  Kd: 0.00999 µM

## VLDHILQKT
HLA-A*11:01 [2]; [25]
  IC50: 55 µM
HLA-A*02:01 [3]
  IC50: 2.62 µM

## FHRKKTDAL
HLA-B*40:01; [26]
  Kd: ≥ 20 µM
HLA-A*03:01 [4]; [26]
  Kd: ≥ 20 µM
HLA-A*01:01; [26]
  Kd: ≥ 20 µM
HLA-A*31:01; [26]
  Kd: ≥ 20 µM
HLA-B*08:01; [26]
  Kd: 0.451 µM
HLA-B*58:01; [26]
  Kd: ≥ 20 µM
HLA-A*69:01 [5]; [26]
  Kd: ≥ 20 µM
HLA-B*18:01 [6]; [26]
  Kd: ≥ 20 µM
HLA-B*46:01 [7]; [26]
  Kd: ≥ 20 µM
HLA-A*11:01 [8]; [26]
  Kd: ≥ 20 µM
HLA-A*02:01 [9]; [26]
  Kd: ≥ 20 µM
HLA-B*27:05; [26]
  Kd: ≥ 20 µM
HLA-B*44:02; [26]
  Kd: ≥ 20 µM
HLA-B*15:01 [10]; [26]
  Kd: ≥ 20 µM
HLA-A*29:02; [26]
  Kd: ≥ 20 µM
HLA-B*57:01 [11]; [26]
  Kd: ≥ 20 µM
HLA-B*15:17 [12]; [27]
  Kd: ≥ 20 µM
HLA-A*26:01; [27]
  Kd: ≥ 20 µM
HLA-B*27:03; [27]
  Kd: ≥ 20 µM

## YQLAVTIMA
HLA-A*02:17; [28]
  Kd: 10.8 µM
HLA-A*02:01 [1]; [28]
  Kd: 0.0423 µM
HLA-A*02:06; [28]
  Kd: 0.0198 µM

## FLAIPPTAGV
HLA-A*68:02 [13]
  Kd: 0.00973 µM
HLA-A*02:03
  Kd: 0.00172 µM
HLA-A*02:17; [29]
  Kd: 0.0119 µM
HLA-A*02:06; source organism: Dengue virus 3 Martinique/1243/1999
  Kd: 0.12 µM

## GLFNYFFGK
HLA-A*03:01 [14]; source organism: Entamoeba histolytica HM-1:IMSS
  Kd: 0.041 µM

## YMGEDGCWYG
HLA-A*02:17; [29]
  Kd: 6.04 µM
HLA-A*02:01 [1]; [29]
  Kd: 0.211 µM

## GVNNLEHGL
HLA-A*11:01 [2]; [25]
  IC50: ≥ 132 µM
HLA-A*02:01 [3]
  IC50: 6.44 µM

## FLQQRKPPL
HLA-A*02:01 [9]; source organism: Mus musculus
  Kd: 0.432 µM
HLA-B*15:17 [12]; source organism: Homo sapiens
  Kd: ≥ 20 µM
HLA-A*26:01; source organism: Homo sapiens
  Kd: ≥ 20 µM
HLA-A*69:01 [15]
  Kd: ≥ 20 µM
HLA-B*18:01 [16]; source organism: Homo sapiens
  Kd: ≥ 20 µM
HLA-B*46:01 [17]; source organism: Homo sapiens
  Kd: ≥ 20 µM
HLA-B*15:01 [18]; source organism: Homo sapiens
  Kd: ≥ 20 µM
HLA-B*51:01; source organism: Homo sapiens
  Kd: ≥ 20 µM
HLA-B*39:01; source organism: Homo sapiens
  Kd: ≥ 20 µM
HLA-B*57:01 [19]; source organism: Homo sapiens
  Kd: ≥ 20 µM
HLA-B*27:03; source organism: Homo sapiens
  Kd: ≥ 20 µM

## LMSGKDVFYL
HLA-A*02:17; [29]
  Kd: 0.00867 µM
HLA-A*02:01 [1]; [29]
  Kd: 0.00476 µM

## YLALMATFKM
HLA-A*02:17; [30]
  Kd: 0.182 µM
HLA-A*02:01 [1]; [30]
  Kd: 0.0128 µM

## AIDDFCLFA
HLA-A*03:01 [14]; [31]
  Kd: ≥ 20 µM
HLA-A*26:01; [31]
  Kd: ≥ 20 µM
HLA-B*18:01 [16]; [31]
  Kd: ≥ 20 µM
HLA-B*46:01 [17]; [31]
  Kd: ≥ 20 µM
HLA-A*02:01 [20]
  Kd: 0.0135 µM
HLA-B*15:01 [18]; [31]
  Kd: ≥ 20 µM
HLA-B*39:01; [31]
  Kd: ≥ 20 µM
HLA-B*57:01 [19]; [31]
  Kd: ≥ 20 µM
HLA-B*27:03; [31]
  Kd: ≥ 20 µM

## RAWNSGYEW
HLA-B*15:17 [21]
  Kd: 0.0044 µM

## EDDDAASSR
HLA-A*11:01 [2]; [32]
  IC50: ≥ 70.9 µM

## VLGYSRMLY
HLA-A*03:01 [14]; source organism: Escherichia coli 536
  Kd: 0.0903 µM

## QAKKDFFSS
HLA-A*11:01 [2]; [25]
  IC50: 66.8 µM

## QLSLKMLSL
HLA-B*40:01; [33]
  Kd: ≥ 20 µM
HLA-A*03:01 [4]; [33]
  Kd: ≥ 20 µM
HLA-A*01:01; [33]
  Kd: ≥ 20 µM
HLA-A*68:02 [22]
  Kd: ≥ 20 µM
HLA-A*31:01; [33]
  Kd: ≥ 20 µM
HLA-B*08:01; [33]
  Kd: 0.816 µM
HLA-B*58:01; [33]
  Kd: ≥ 20 µM
HLA-B*48:01
  Kd: ≥ 20 µM
HLA-A*69:01 [5]; [33]
  Kd: ≥ 20 µM
HLA-B*18:01 [6]; [33]
  Kd: ≥ 20 µM
HLA-B*46:01 [7]; [33]
  Kd: ≥ 20 µM
HLA-A*02:19
  Kd: ≥ 20 µM
HLA-A*11:01 [8]; [33]
  Kd: ≥ 20 µM
HLA-A*02:12
  Kd: ≥ 20 µM
HLA-A*02:01 [9]; [33]
  Kd: ≥ 20 µM
HLA-B*27:05; [33]
  Kd: ≥ 20 µM
HLA-B*44:02; [33]
  Kd: ≥ 20 µM
HLA-B*15:01 [10]; [33]
  Kd: ≥ 20 µM
HLA-A*24:03
  Kd: ≥ 20 µM
HLA-A*29:02; [33]
  Kd: ≥ 20 µM
HLA-B*57:01 [11]; [33]
  Kd: ≥ 20 µM
HLA-A*26:01; [25]
  Kd: ≥ 20 µM
HLA-B*51:01; [25]
  Kd: ≥ 20 µM
HLA-B*39:01; [25]
  Kd: ≥ 20 µM
HLA-B*27:03; [25]
  Kd: ≥ 20 µM

## GEWAFWENK
HLA-A*11:01 [2]; [32]
  IC50: 26.2 µM

## YITDYSNDI
HLA-A*02:01 [9]; source organism: Homo sapiens
  Kd: 0.0075 µM
HLA-B*15:17 [12]; source organism: Homo sapiens
  Kd: ≥ 20 µM
HLA-A*26:01; source organism: Homo sapiens
  Kd: ≥ 20 µM
HLA-A*69:01 [15]
  Kd: ≥ 20 µM
HLA-B*18:01 [16]; source organism: Homo sapiens
  Kd: ≥ 20 µM
HLA-B*46:01 [17]; source organism: Homo sapiens
  Kd: ≥ 20 µM
HLA-B*15:01 [18]; source organism: Homo sapiens
  Kd: ≥ 20 µM
HLA-B*51:01; source organism: Homo sapiens
  Kd: ≥ 20 µM
HLA-B*39:01; source organism: Homo sapiens
  Kd: ≥ 20 µM
HLA-B*57:01 [19]; source organism: Homo sapiens
  Kd: ≥ 20 µM
HLA-B*27:03; source organism: Homo sapiens
  Kd: ≥ 20 µM

## LLANILSEK
HLA-A*03:01 [14]; source organism: Rickettsia sibirica 246
  Kd: 0.0078 µM
